Results reported in the supplement of paper PMC10567573.
± gives the standard deviation.

Assay: protein stability index of a GFP-peptide fusion (GPS, HEK-293T) (PSI 1-6); higher = more stable
[1] = treatment: DMSO, c terminus: a fixed tail appended
[2] = treatment: MLN4924 1 uM, 8 h, c terminus: a fixed tail appended
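Also: 24-mer peptide tiles fused after GFP, lentivirally expressed, FACS-sorted into six equal bins by GFP/DsRed ratio, decoded by Illumina sequencing, PSI is the read-weighted mean bin number.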

Sequence | protein stability index [1] | protein stability index [2] | protein stability index (treatment: DMSO, c terminus: native) | protein stability index (treatment: MLN4924 1 uM, 8 h, c terminus: native)
PEYREWNPELIKPKKLLNPVKASR [FAM107A] | 3.89 ± 0.13 | 4.09 ± 0.39 | – | –
NWIVPGKFLAFSGPHPKSKIENGY [CDC14A] | 2.32 ± 0.36 | 2.61 ± 0.48 | – | –
MGKSASKQFHNEVLKAHNEYRQKH [GLIPR2] | 3.94 ± 0.27 | 3.96 ± 0.28 | – | –
EDEEEEEGENYQKGERGEDSSEEK [CHGB] | 5.622 ± 0.029 | 5.66 ± 0.21 | – | –
ESYPEDTVFYIPEDHKPGTFPKAL [DLC1] | 4.13 ± 0.31 | 4.22 ± 0.21 | – | –
GPFGVNHGVELHSDVIEYAKQKLD [PCMTD2] | 3.94 ± 0.6 | 4.28 ± 0.25 | – | –
ERTEESSAVQYFQFYGYLSQQQNM [CARM1] | 2.56 ± 0.25 | 2.82 ± 0.52 | – | –
EGLNSSLCSPGHERRGTPADTEEP [PSD2] | 5.39 ± 0.37 | 5.53 ± 0.19 | – | –
LLIANKRQSYDISIVAQVDQTGSK [CARM1] | 2.47 ± 0.25 | 2.52 ± 0.26 | – | –
QEFAARAAKQLEYQQLEDDKLSQK [EPB41L3] | 5.17 ± 0.81 | – | – | –
GGKRRRDDISVDSLDFTKKILHTA [PPP2R2C] | 3.17 ± 0.21 | 3.77 ± 0.36 | – | –
QTWNNSTWSNQTQNIQSWSNHSWN [NANOGP8] | 2.36 ± 0.24 | 2.46 ± 0.28 | – | –
RERNMAPDLRQDFNMMEQKKRVSM [ADD1] | 4.53 ± 0.11 | 4.5 ± 0.092 | – | –
ISGREVFEFRPELVNDDDEEADDT [ZC3H15] | 5.51 ± 0.26 | 5.47 ± 0.16 | – | –
TNITEVDAASVYTLPAGADFLMCY [CASP6] | 2.35 ± 0.34 | 2.18 ± 0.25 | – | –
EIDCVDKDGNTPLHVAARYGHELL [ANKRD44] | 4.05 ± 0.26 | 4.05 ± 0.19 | – | –
QDDLTVVLNEEGICTQKCALNWTD [VPS39] | 4.04 ± 0.49 | 4 ± 0.67 | – | –
QQYQEQLDKSTKLVETAIQSLDEP [TRIM63] | 5.1 ± 0.32 | 5.07 ± 0.086 | – | –
GAAFRDHQLLEPIRDFEARKCPVH [TRIM29] | 3.73 ± 0.26 | 3.88 ± 0.17 | – | –
HMLLNTTLNIKETDSKELSMAKEV [ZBED1] | 4.26 ± 0.17 | 4.35 ± 0.2 | – | –
HGAHKHHPIEEAAEEHREKLLKQM [TRIM43] | 5.17 ± 0.24 | 5.14 ± 0.14 | – | –
RSRREQFSRAPVSALPLAPNHLGG [STX5] | 3.46 ± 0.15 | 3.77 ± 0.31 | – | –
LVGAQAPATEEQEAASSSSTLVEV [MAGEA3] | 5.43 ± 0.21 | 5.3 ± 0.097 | – | –

Sequence | protein stability index [1] | protein stability index [2] | protein stability index (treatment: DMSO, c terminus: native) | protein stability index (treatment: MLN4924 1 uM, 8 h, c terminus: native)
GPHPKSKIENGYPLHAPEAYFPYF [CDC14A] | 2.53 ± 0.21 | 2.69 ± 0.13 | – | –
WASRREAFAQRPSSAPDLMCLSPD [CDC25B] | 3.85 ± 0.21 | 4.07 ± 0.2 | – | –
GHEEWVGSAYLFVESSLDKVVLSD [TRADD] | 2.41 ± 0.45 | 2.45 ± 0.55 | – | –
EDDSMSVIEPVVENSGILQGKLIK [EFHC1] | 4.89 ± 0.45 | 5.45 ± 0.25 | – | –
SALPLAPNHLGGGAVVLGAESHAS [STX5] | 4.22 ± 0.32 | 4.32 ± 0.53 | – | –
CAIQMFSFLFLGCSHSFLLAVMGY [OR10K2] | 3.41 ± 0.14 | 3.46 ± 0.37 | – | –
QAWGSMLEVPAGSRLNLTGLGYFS [CCDC3] | 2.35 ± 0.3 | 1.79 ± 0.2 | – | –
ENGYGFHLNAIRGLPGSFIKEVQK [PDZK1] | 2.62 ± 0.18 | 2.97 ± 0.43 | – | –
QPADVFPRLFKEWNITKLSIEYDS [CRY1] | 2.7 ± 0.32 | 2.92 ± 0.3 | – | –
DRTFTLKTVLMIAIQLLSRMEYVH [CSNK1G1] | 3.15 ± 0.067 | 2.65 ± 1.1 | – | –
AIPYLEHIIHVWEETGSRFHNCLI [VPS39] | 2.31 ± 0.4 | 2.36 ± 0.54 | – | –
HLKKVASRYQNNIKNDKYGPWLEW [PRIM1] | 2.23 ± 0.38 | 2.3 ± 0.25 | – | –
VPIDIFSEEIRFYQLGEEAMEKFR [KCNA3] | 3.14 ± 0.28 | 3.23 ± 0.18 | – | –
KGKAGRVDLVDESGYVSGYKHAGT [TPPP] | 4.32 ± 0.12 | 4.57 ± 0.18 | – | –
PIHTIILNPHVHLVGDDAACIAYI [CAMK2D] | 2 ± 0.45 | 3.12 ± 1.6 | – | –
SAAGIEARSRALRRRWCPAGIMLL [SPACA3] | 2.3 ± 0.11 | 2.38 ± 0.15 | – | –
EEKIQVLQQQNEDLKARIDQNTVV [MTUS2] | 5.28 ± 0.24 | 5.28 ± 0.069 | – | –
HRDSSQAIPITELTKSQVQDKPYK [ZNF8] | 4.96 ± 0.2 | 5.1 ± 0.3 | – | –
MGNSHCVPQAPRRLRASFSRKPSL [PLEKHN1] | 3.66 ± 0.096 | 3.69 ± 0.11 | – | –
GAGPPEPLRICPLHISVKEELDG [TRIM35] | – | – | 4.21 ± 0.32 | 4.56 ± 0.14
AILFTRQDLCGVSTCDTLGMADVG [ADAMTS4] | 1.8 ± 0.28 | 2.66 ± 0.22 | – | –
MAEASATGACGEAMAAAEGSSGPA [SEPHS2] | 5.44 ± 0.2 | 5.3 ± 0.17 | – | –
